The results in this text go back to paper PMC7337384 (bioRxiv, 2020).

This assay deals with T1, MERS-CoV receptor-binding domain fused to the Fc domain of human IgG1 (MERS-CoV, UniProt K9N5Q8 381-587).
T1 sequence: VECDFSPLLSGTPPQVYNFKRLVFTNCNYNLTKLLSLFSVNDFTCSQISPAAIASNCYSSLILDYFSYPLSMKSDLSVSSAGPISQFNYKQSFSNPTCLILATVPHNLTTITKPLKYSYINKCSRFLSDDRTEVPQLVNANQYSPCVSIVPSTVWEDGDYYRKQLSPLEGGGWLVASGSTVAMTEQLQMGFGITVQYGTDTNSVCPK
The experiment in a line: SPR. A general note: In SPR one partner is held on a chip, and binding of the other changes the refractive index at the surface.

B1: soluble monomeric human ACE2-NN (enzymatically inactive human ACE2 lacking its active-site histidines) (domain or fragment)
chain: QSTIEEQAKTFLDKFNHEAEDLFYQSSLASWNYNTNITEENVQNMNNAGDKWSAFLKEQSTLAQMYPLQEIQNLTVKLQLQALQQNGSSVLSEDKSKRLNTILNTMSTIYSTGKVCNPDNPQECLLLEPGLNEIMANSLDYNERLWAWESWRSEVGKQLRPLYEEYVVLKNEMARANHYEDYGDYWRGDYEVNGVDGYDYSRGQLIEDVEHTFEEIKPLYEHLHAYVRAKLMNAYPSYISPIGCLPAHLLGDMWGRFWTNLYSLTVPFGQKPNIDVTDAMVDQAWDAQRIFKEAEKFFVSVGLPNMTQGFWENSMLTDPGNVQKAVCHPTAWDLGKGDFRILMCTKVTMDDFLTAHNEMGNIQYDMAYAAQPFLLRNGANEGFHEAVGEIMSLSAATPKHLKSIGLLSPDFQEDNETEINFLLKQALTIVGTLPFTYMLEKWRWMVFKGEIPKDQWMKKWWEMKREIVGVVEPVPHDETYCDPASLFHVSNDYSFIRYYTRTLYQFQFQEALCQAAKHEGPLHKCDISNSTEAGQKLFNMLRLGKSEPWTLALENVVGAKNMNVRPLLNYFEPLFTWLKDQNKNSFVGWSTDWSPYEPEA
One may read the Kd as the equilibrium constant for the complex coming apart. Take B1: the Kd is > 35 µM.
